Test results reported in patent US20140087995A1 (published 2014).
Numbered stars: 1 amine (or outer) side, 2 acyl side, 3 side chain; on linkers, the order of the positions; unused ones are H or OH. Bridge positions count the residues as written; N and C are the ends. Side chains are listed from the residue outwards. Ends that are not written are not given here. * marks the point of attachment. C18 diacid = O=C(O)CCCCCCCCCCCCCCCCC(=O)*; γGlu = O=C(O)[C@H](CCC(=O)[*:2])N[*:1]

T1: rat amylin receptor (rat calcitonin receptor + rat RAMP 3) (rat, UniProt P32214 25-516; Q9JJ73 23-147)
T1 construct: whole, on cells; Membranes of BHK tk'ts 13 cells transiently transfected with the rat calcitonin receptor and rat RAMP 3; also called rAmylin-R; rat amylin 3(a) receptor
T1 sequence (looked up) 1: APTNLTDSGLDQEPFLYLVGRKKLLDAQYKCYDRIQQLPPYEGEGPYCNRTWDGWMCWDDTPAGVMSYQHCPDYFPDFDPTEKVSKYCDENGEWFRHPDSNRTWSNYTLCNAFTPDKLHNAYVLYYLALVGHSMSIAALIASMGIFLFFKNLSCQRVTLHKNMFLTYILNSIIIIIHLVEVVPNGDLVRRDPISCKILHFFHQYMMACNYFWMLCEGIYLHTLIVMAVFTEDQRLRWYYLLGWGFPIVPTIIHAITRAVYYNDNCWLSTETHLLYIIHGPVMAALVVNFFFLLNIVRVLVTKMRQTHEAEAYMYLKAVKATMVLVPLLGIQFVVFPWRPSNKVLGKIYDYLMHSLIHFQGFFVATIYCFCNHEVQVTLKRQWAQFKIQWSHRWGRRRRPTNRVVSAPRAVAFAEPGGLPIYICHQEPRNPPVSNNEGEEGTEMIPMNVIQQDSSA
T1 sequence (looked up) 2: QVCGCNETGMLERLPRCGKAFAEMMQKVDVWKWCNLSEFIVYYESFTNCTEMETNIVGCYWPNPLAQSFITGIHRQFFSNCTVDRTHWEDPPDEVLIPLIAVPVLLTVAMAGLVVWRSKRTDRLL

T2: rat calcitonin receptor (rat, UniProt P32214 25-516)
T2 construct: whole, on cells; Membranes of BHK tk'ts 13 cells transiently transfected with the rat calcitonin receptor; also called rCTR; rat calcitonin (a) receptor
T2 sequence (looked up): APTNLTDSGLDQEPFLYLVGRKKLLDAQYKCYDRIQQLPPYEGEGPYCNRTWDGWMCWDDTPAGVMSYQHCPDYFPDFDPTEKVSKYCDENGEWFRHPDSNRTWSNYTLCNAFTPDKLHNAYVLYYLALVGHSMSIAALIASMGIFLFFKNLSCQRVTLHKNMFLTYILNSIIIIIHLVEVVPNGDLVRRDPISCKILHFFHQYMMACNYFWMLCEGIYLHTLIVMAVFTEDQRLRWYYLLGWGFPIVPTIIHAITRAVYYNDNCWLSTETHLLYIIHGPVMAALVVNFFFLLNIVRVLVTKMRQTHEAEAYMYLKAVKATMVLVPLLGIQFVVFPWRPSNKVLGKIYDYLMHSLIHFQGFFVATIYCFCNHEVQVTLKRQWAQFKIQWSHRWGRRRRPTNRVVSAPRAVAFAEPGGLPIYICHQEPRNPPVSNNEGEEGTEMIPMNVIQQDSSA

T3: human calcitonin receptor (human, UniProt P30988 25-474)
T3 construct: whole, on cells; Membranes of a BHK tk'ts 13 cell line stably transfected with the human calcitonin receptor; also called hCTR; hCT
T3 sequence (looked up): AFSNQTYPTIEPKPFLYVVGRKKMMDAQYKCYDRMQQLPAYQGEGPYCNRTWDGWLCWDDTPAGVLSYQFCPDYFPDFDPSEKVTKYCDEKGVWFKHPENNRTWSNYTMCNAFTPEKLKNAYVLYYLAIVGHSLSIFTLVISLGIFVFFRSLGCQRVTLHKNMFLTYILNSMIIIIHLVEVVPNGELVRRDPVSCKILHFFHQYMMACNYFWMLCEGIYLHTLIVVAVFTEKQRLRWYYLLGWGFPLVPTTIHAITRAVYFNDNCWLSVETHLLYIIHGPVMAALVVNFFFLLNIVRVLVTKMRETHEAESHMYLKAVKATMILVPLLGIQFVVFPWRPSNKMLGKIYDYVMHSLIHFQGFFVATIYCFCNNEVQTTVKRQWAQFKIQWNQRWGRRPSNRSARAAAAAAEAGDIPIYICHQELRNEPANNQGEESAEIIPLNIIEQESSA

T4: human amylin receptor (amylin 3(a) receptor: human calcitonin receptor coexpressed with RAMP-3) (human, UniProt P30988 25-474; O60896 24-148)
T4 sequence (looked up) 1: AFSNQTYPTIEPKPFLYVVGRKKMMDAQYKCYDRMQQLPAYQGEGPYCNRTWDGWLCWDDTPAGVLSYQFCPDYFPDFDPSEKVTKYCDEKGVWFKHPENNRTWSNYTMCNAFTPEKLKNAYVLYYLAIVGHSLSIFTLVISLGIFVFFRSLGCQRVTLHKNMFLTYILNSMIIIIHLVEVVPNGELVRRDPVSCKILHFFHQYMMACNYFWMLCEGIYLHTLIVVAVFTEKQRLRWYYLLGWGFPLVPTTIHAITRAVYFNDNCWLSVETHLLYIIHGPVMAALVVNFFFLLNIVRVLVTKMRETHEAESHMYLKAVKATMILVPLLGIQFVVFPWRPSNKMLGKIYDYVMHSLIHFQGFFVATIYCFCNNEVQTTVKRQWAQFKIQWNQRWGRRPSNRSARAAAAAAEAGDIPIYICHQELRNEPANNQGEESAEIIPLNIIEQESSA
T4 sequence (looked up) 2: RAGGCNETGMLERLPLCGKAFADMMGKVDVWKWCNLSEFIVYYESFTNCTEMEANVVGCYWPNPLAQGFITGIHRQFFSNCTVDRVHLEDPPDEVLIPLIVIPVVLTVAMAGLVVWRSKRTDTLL

T5: human calcitonin receptor (human, UniProt P30988 25-474)
T5 sequence (looked up): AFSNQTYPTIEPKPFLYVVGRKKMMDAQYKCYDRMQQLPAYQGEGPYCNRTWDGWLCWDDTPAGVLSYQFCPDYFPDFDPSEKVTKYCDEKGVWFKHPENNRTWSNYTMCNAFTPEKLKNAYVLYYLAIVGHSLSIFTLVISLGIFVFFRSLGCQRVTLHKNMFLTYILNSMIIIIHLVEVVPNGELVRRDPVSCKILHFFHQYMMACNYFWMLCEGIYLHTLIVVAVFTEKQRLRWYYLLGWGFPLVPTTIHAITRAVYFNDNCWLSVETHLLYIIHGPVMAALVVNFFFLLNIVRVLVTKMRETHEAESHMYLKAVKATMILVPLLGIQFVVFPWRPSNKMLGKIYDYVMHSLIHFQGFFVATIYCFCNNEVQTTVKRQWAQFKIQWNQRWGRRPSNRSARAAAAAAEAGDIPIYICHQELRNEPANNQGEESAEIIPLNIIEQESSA


How the values were obtained:
[1] = target: T1, rat amylin receptor (rat calcitonin …); test: SPA competition vs 125I-rat amylin, membranes with rat CTR + rat RAMP3 (Assay VI)
Procedure: The binding assay was performed using scintillation proximity assay (SPA) beads (RPNQ0001) from PerkinElmer and cell membranes from the Amylin 3(a)/CRE-luc cells (as described in Assay (II)) were used. Membranes were prepared in the following way; the cells were rinsed with PBS and incubated with Versene for approximately 5 min before harvesting. The cells were flushed with PBS and the cell-suspension was centrifuged for 5 min at 1000 rpm. Cells were homogenized (ultrathurrax) in a buffer containing 20 mM Na-HEPES and 10 mM EDTA (pH 7.4) and centrifuged at 20.000 rpm for 15 min. The resulting pellet was resuspended, homogenized and centrifuged (20.000 rpm, 15 min) in a buffer containing 20 mM Na-HEPES and 0.1 mM EDTA (pH 7.4, buffer 2). The resulting pellet was resuspended in buffer 2 and protein concentration was measured (BCA protein Assay, Pierce). The homogenate was kept cold during the whole procedure. The membranes were kept at −80° C. until use. The assay was performed in a 384 well Optiplate (PerkinElmer) in a total volume of 40 ul. Membranes were mixed with SPA beads. Final concentration of membranes 35 ng/μL final and SPA beads was 0.05 mg/well. Test-compounds were dissolved in DMSO and further diluted in assay buffer (50 mM Hepes, pH 7.4, 1 mM CaCl2, 5 mM MgCl₂, 0.1% OA and 0.02% Tween20). […] The final mixture was incubated with shaking at 400 rpm for 120 min at 25° C. prior to centrifugation (1500 rpm, 10 min). Samples were analyzed on TopCounter™ (Packard). The IC₅₀ was calculated using (one site binding competition analysis) GraphPad Prism5 as a measure of receptor affinity.
Cells were grown in DMEM with 10% FBS and 1% Pen/Strep. Approximately 48 hours after transfection, the cells were harvested and membranes were prepared.

[2] = target: T2, rat calcitonin receptor; test: IC50 at rCTR divided by IC50 at rAmylin-R (reference)
[3] = target: T3, human calcitonin receptor; test: IC50 at hCTR divided by IC50 at hAmylin-R (reference)
Procedure: The resulting pellet was resuspended, homogenized and centrifuged (20.000 rpm, 15 min) in a buffer containing 20 mM Na-HEPES and 0.1 mM EDTA (pH 7.4, buffer 2). The resulting pellet was resuspended in buffer 2 and protein concentration was measured (BCA protein Assay, Pierce). The homogenate was kept cold during the whole procedure. The membranes were kept at −80° C. until use. The assay was performed in a 384 well Optiplate (PerkinElmer) in a total volume of 40 ul. Membranes were mixed with SPA beads. Final concentration of membranes 35 ng/μL final and SPA beads was 0.05 mg/well. Test-compounds were dissolved in DMSO and further diluted in assay buffer (50 mM Hepes, pH 7.4, 1 mM CaCl2, 5 mM MgCl₂, 0.1% OA and 0.02% Tween20). […] The final mixture was incubated with shaking at 400 rpm for 120 min at 25° C. prior to centrifugation (1500 rpm, 10 min). Samples were analyzed on TopCounter™ (Packard). The IC₅₀ was calculated using (one site binding competition analysis) GraphPad Prism5 as a measure of receptor affinity.
Membranes were prepared in the following way; the cells were rinsed with PBS and incubated with Versene for approximately 5 min before harvesting. The cells were flushed with PBS and the cell-suspension was centrifuged for 5 min at 1000 rpm. Cells were homogenized (Ultrathurrax) in a buffer containing 20 mM Na-HEPES and 10 mM EDTA (pH 7.4) and centrifuged at 20.000 rpm for 15 min. The resulting pellet was resuspended, homogenized and centrifuged (20.000 rpm, 15 min) in a buffer containing 20 mM Na-HEPES and 0.1 mM EDTA (pH 7.4, buffer 2). The resulting pellet was resuspended in buffer 2 and protein concentration was measured (BCA protein Assay, Pierce). The homogenate was kept cold during the whole procedure. The membranes were kept at −80° C. until use. Assay was performed in a 384 well Optiplate (PerkinElmer) in a total volume of 40 ul. Membranes were mixed with SPA beads.

[4] = target: T2, rat calcitonin receptor; test: SPA competition vs 125I-calcitonin, membranes with rat CTR (Assay VIII)
[5] = target: T4, human amylin receptor (amylin 3(a) …); test: cell-based or functional assay
[6] = target: T5, human calcitonin receptor; test: cell-based or functional assay

Binder	IC50 [1]	Ratio rCT/rAmylin binding [2]	Ratio hCT/hAmylin binding [3]	IC50 [4]	hAmylin-R funct. EC50 (pM) [5]	Ratio hCT/hAmylin funct. [6]	hCTR funct. EC50 (pM) [6]
KCNTATCATQRLANFLRHSSPNFGAIPSSTNVGSETY (C20 diacid-gGlu on the alpha amino group of the N-terminal residue (Lys 1); disulfide bridge Cys2-Cys7; C-terminal amide, modifications are with respect to human amylin; also called compound 23) [N^α1-[(4S)-4-carboxy-4-(19-carboxynonadecanoylamino)butanoyl]-[Arg17,Pro21,Pro27,Glu35]-h-amylin]	1.12 nM	71.3	25	79.9 nM	–	–	–
K([γGlu-C18 diacid])CNTATCATQRLANFLRHSSPNFGAIPSSTNVGHNTY-NH2 (disulfide 2-7; N-terminus assumed; SMILES CC[C@H](C)[C@H](NC(=O)[C@H](C)NC(=O)CNC(=O)[C@H](Cc1ccccc1)NC(=O)[C@H](CC(N)=O)NC(=O)[C@@H]1CCCN1C(=O)[C@H](CO)NC(=O)[C@H](CO)NC(=O)[C@H](Cc1c[nH]cn1)NC(=O)[C@H](CCCNC(=N)N)NC(=O)[C@H](CC(C)C)NC(=O)[C@H](Cc1ccccc1)NC(=O)[C@H](CC(N)=O)NC(=O)[C@H](C)NC(=O)[C@H](CC(C)C)NC(=O)[C@H](CCCNC(=N)N)NC(=O)[C@H](CCC(N)=O)NC(=O)[C@@H](NC(=O)[C@H](C)NC(=O)[C@@H]1CSSC[C@H](NC(=O)[C@@H](N)CCCCNC(=O)CC[C@H](NC(=O)CCCCCCCCCCCCCCCCC(=O)O)C(=O)O)C(=O)N[C@@H](CC(N)=O)C(=O)N[C@@H]([C@@H](C)O)C(=O)N[C@@H](C)C(=O)N[C@@H]([C@@H](C)O)C(=O)N1)[C@@H](C)O)C(=O)N1CCC[C@H]1C(=O)N[C@@H](CO)C(=O)N[C@@H](CO)C(=O)N[C@H](C(=O)N[C@@H](CC(N)=O)C(=O)N[C@H](C(=O)NCC(=O)N[C@@H](Cc1c[nH]cn1)C(=O)N[C@@H](CC(N)=O)C(=O)N[C@H](C(=O)N[C@@H](Cc1ccc(O)cc1)C(N)=O)[C@@H](C)O)C(C)C)[C@@H](C)O) [N^ε1-[(4S)-4-carboxy-4-(17-carboxyheptadecanoylamino)butanoyl]-[Arg17,Pro21,Pro27,His34]-h-amylin]	–	–	–	–	96 pM	60.9	5850 pM

Results, then the binder that gave them:

IC50 [1]	Ratio rCT/rAmylin binding [2]	Ratio hCT/hAmylin binding [3]	IC50 [4]	hAmylin-R funct. EC50 (pM) [5]	Ratio hCT/hAmylin funct. [6]	hCTR funct. EC50 (pM) [6]	Binder
1.5 nM	46.2	31.1	69.2 nM	–	–	–	KCNTATCATQRLANFLRHSSPNFGAIPSSTNVGHNTY (C20 diacid-gGlu on the alpha amino group of the N-terminal residue (Lys 1); disulfide bridge Cys2-Cys7; C-terminal amide, modifications are with respect to human amylin; also called compound 40) [N^α1-[(4S)-4-carboxy-4-(19-carboxynonadecanoylamino)butanoyl]-[Arg17,Pro21,Pro27,His34]-h-amylin]
1.72 nM	52	64.4	89.2 nM	–	–	–	KCNTATCATQRLANFLRHSSPNFGAIPSSTNVGSKTY (C20 diacid-gGlu on the alpha amino group of the N-terminal residue (Lys 1); disulfide bridge Cys2-Cys7; C-terminal amide, modifications are with respect to human amylin; also called compound 34) [N^α1-[(4S)-4-carboxy-4-(19-carboxynonadecanoylamino)butanoyl]-[Arg17,Pro21,Pro27,Lys35]-h-amylin]
